Each block holds one binder with its values, some of them ahead of it.
Legend:
Fc tagged human PDL1 = target: T1, Fc tagged human PDL1 (human, UniProt Q9NZQ7 19-239); experiment: SPR
T1 construct: Bought (Sino Biological, cat. 10084-H02H); captured on the SPR chip; also called PDL1-Fc chimeric protein
Description: (§1) Affinity to PDL1 of the different species was determined by SPR measurements using a Biacore T200 device (GE Healthcare). An antibody specific for the Fc region of human IgGs was immobilized on a sensor chip (CM5 sensor chip, GE Healthcare) by amine-coupling. For all formats, with the exception of the Fc containing Morrison formats, PDL1-Fc chimeric protein from different species were captured by the immobilized antibody.
(§2) Three-fold serial dilutions of the molecules specific for PDL1 (0.12-90 nM) were injected into the flow cells for three minutes and dissociation was monitored for 10 minutes. After each injection cycle, surfaces were regenerated with one injection of a 3 M MgCl₂ solution. The apparent dissociation (kd) and association (kₐ) rate constants and the apparent dissociation equilibrium constant (KD) were calculated using one-to-one Langmuir binding model. Affinity to CD137 of the different species was determined using the identical setup as for PDL1 with the exception that CD137-Fc chimeric protein from different species were captured by the immobilized antibody.

Fc tagged human CD137 = target: T2, Fc tagged human CD137 (human, UniProt Q07011 24-186); experiment: SPR
T2 construct: also called CD137-Fc chimeric protein
Description: as §1, §2

human PDL1 on cells = human PDL1 on cells (human, UniProt Q9NZQ7 19-290); experiment: cell-based or functional assay
[1] = target: T3, CD137 on Jurkat NFkB reporter cells (human, UniProt Q07011 24-255); experiment: cell-based or functional assay
[2] = target: T3, CD137 on Jurkat NFkB reporter cells; experiment: cell-based or functional assay; remark: listed apart in the source
biotinylated human PDL1 [3] = target: T4, biotinylated human PDL1 (human, UniProt Q9NZQ7 19-238, limits assumed, biotinylated); experiment: competition ELISA B7.1/PDL1
T4 construct: also called biotinylated PDL1
Description: Plates were blocked for 1 hour at room temperature by adding 300 μl of PBS with 1% BSA and 0.2% tween (dilution buffer) to each well. […] The mixtures were pre-incubated for 1 hour at room temperature under gentle agitation on a rotating mixer (21 rpm) and added to the microplates after 3 wash cycles with 450 μl wash buffer per well. Plates were incubated for 1.5 hours at room temperature under gentle agitation, then 10 ng/ml streptavidin-polyHRP40 was added to each microplate well after three washes with 450 μl of wash buffer per well. After 1 h incubation at RT, plates were washed three times with 450 μl wash buffer and TMB substrate solution was added. The enzymatic reaction was stopped after 6 minutes by addition of 1 M HCl and absorbance was measured at 450 nm using 690 nm as a reference wavelength. For calculation of IC₅₀ values, a four-parameter logistic (4PL) curve fit was performed in Graph Pad Prism using reference subtracted values.

biotinylated human PDL1 [4] = target: T4, biotinylated human PDL1; experiment: competition ELISA PD-1/PDL1
Description: Plates were blocked for 1 hour at room temperature by adding 300 μl of PBS with i%BSA and 0.2% tween (dilution buffer) to each well. Inhibitors were serially diluted in 3-fold steps to final concentrations ranging from 300 to 0.005 ng/ml in dilution buffer containing 1 ng/ml biotinylated human PDL1. The mixtures were pre-incubated for 1 hour at room temperature under gentle agitation on a rotating mixer (21 rpm) and added to the microplates after 3 wash cycles with 450 μl wash buffer per well. Plates were incubated for 1.5 hours at room temperature under gentle agitation, then 10 ng/ml streptavidin-polyHRP40 was added to each microplate well after three washes with 450 μl of wash buffer per well. After 1 h incubation at RT, plates were washed three times with 450 μl wash buffer and TMB substrate solution was added. The enzymatic reaction was stopped after 6 minutes by addition of 1 M HCl and absorbance was measured at 450 nm using 690 nm as a reference wavelength. For calculation of IC₅₀ values, a four-parameter logistic (4PL) curve fit was performed in Graph Pad Prism using reference subtracted values.

[5] = target: T5, mouse CD137-Fc chimeric protein (mouse, UniProt P20334 24-187, limits assumed); experiment: SPR
T5 sequence (looked up): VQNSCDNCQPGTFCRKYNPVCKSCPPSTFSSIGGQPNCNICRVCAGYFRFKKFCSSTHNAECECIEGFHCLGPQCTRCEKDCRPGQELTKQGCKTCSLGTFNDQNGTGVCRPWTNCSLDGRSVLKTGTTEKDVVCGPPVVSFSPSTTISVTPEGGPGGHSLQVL
Description: as §1, §2

koff (Fc tagged human PDL1): 4.4e-05 s⁻¹ | kon (Fc tagged human PDL1): 4.2e+06 M⁻¹ s⁻¹ | Kd (Fc tagged human CD137): 0.75 nM | koff (Fc tagged human CD137): 0.00045 s⁻¹ | kon (Fc tagged human CD137): 600000 M⁻¹ s⁻¹ | IC50 (ng/ml), NF-AT potency assay, +HSA (human PDL1 on cells): 18.5 ng/mL | rel. IC50 (avelumab/test), +HSA (human PDL1 on cells): 1.98 fold | IC50 (ng/ml) (EC50 in Table 16C), NFkB reporter, HCC827 + IFNg, 24 h, +HSA [1]: 21.9 ng/mL | rel. IC50 (PRO1186/test), 24 h [1]: 0.75 fold | Area under the curve (calculated using PRO885 normalized data), first line (6 h by the order of the upper part) [2]: 111 | Area under the curve (calculated using PRO885 normalized data), second line (24 h by the order of the upper part) [2]: 150 | EC50 [ng/ml], NF-kB reporter, HCC827 + IFNg, +HSA, 6 h [2]: 19.4 ng/mL | IC10/EC90 ratio, first line (6 h by the order of the upper part) [2]: 26.8 | IC10/EC90 ratio, second line (24 h by the order of the upper part) [2]: 3.57 | Maximum NF-kB activation (rel. to PRO1186) [%], first line (6 h by the order of the upper part) [2]: 63.4% | Maximum NF-kB activation (rel. to PRO1186) [%], second line (24 h by the order of the upper part) [2]: 83.8% | rel. Area under the curve (AUCsample/AUCPRO1186), first line (6 h by the order of the upper part) [2]: 0.59 fold | rel. Area under the curve (AUCsample/AUCPRO1186), second line (24 h by the order of the upper part) [2]: 0.81 fold | rel. EC50 (EC50, PRO1186/EC50, sample), NF-kB reporter, 6 h [2]: 0.67 fold | rel. EC50 (EC50, PRO1186/EC50, sample), NF-kB reporter, 24 h [2]: 0.75 fold | rel. IC10/EC90 (ratio of sample/ratio of PRO1186), first line (6 h by the order of the upper part) [2]: 0.36 fold | rel. IC10/EC90 (ratio of sample/ratio of PRO1186), second line (24 h by the order of the upper part) [2]: 0.16 fold | IC50 (biotinylated human PDL1 [3]): 0.00283 µg/mL | rel. IC50 (IC50 avelumab/IC50 test) (biotinylated human PDL1 [3]): 0.99 fold | IC50 (biotinylated human PDL1 [4]): 0.00326 µg/mL | rel. IC50 (IC50 avelumab/IC50 test) (biotinylated human PDL1 [4]): 0.43 fold
B1: PRO1432 (other)
chain: DIQMTQSPSSLSASVGDRVTITCQASQSINNVLAWYQQKPGKAPKLLIYRASTLASGVPSRFSGSGSGTDFTLTISSLQPEDFATYYCQSSYGNYGDFGCGTKVTVLGGGGGSQVQLQESGPGLVKPSETLSLTCKASGFSFSSGYDMCWVRQPPGKGLEWIACVVAGSVDITYYASWAKGRVTISKDSSKNQVSLKLSSVTAADTAVYYCARKDAYSDAFNLWGQGTLVTVSSGGGGSGGGGSGGGGSGGGGSIQMTQSPSSLSASVGDRVTITCQASQSINDYLAWYQQKPGKAPKLLIYKASTLASGVPSRFSGSGSGTDFTLTISSLQPEDFATYYCQQGYIITDIDNVFGTGTKVTVLGGGGGSEVQLVESGGGLVQPGGSLRLSCAASGFSFSNSYWICWVRQAPGKCLEWIGCTFVGSSDSTYYANWAKGRFTISRDNSKNTVYLQMNSLRAEDTAVYYCARHPSDAVYGYANNLWGQGTLVTVSSGGGGSGGGGSIQMTQSPSSLSASVGDRVTITCQSSESVYSNNQLSWYQQKPGQPPKLLIYDASDLASGVPSRFSGSGSGTDFTLTISSLQPEDFATYYCAGGFSSSSDTAFGGGTKLTVLGGGGGSGGGGSGGGGSGGGGSEVQLVESGGGLVQPGGSLRLSCAASGFSLSSNAMGWVRQAPGKGLEYIGIISVGGFTYYASWAKGRFTISRDNSKNTVYLQMNSLRAEDTATYFCARDRHGGDSSGAFYLWGQGTLVTVSS
notes: trispecific scDb-scFv; also called 33-03-G02 sc18 scDb-i/38-02-A04 sc13 scDb-o/19-01-H04 sc03 scFv

koff (Fc tagged human PDL1): 7.6e-05 s⁻¹ | kon (Fc tagged human PDL1): 2.8e+06 M⁻¹ s⁻¹ | Kd [5]: 420 nM | Kd (Fc tagged human CD137): 3.4 nM | koff (Fc tagged human CD137): 0.00084 s⁻¹ | kon (Fc tagged human CD137): 250000 M⁻¹ s⁻¹
B2: PRO1134 (bispecific antibody)
chain: DIQMTQSPSSLSASVGDAVTITCQASQSINDYLAWYQQKPGKSPKLLIYKASTLASGVPSRFSGSGSGTDFTLTISSLQPEDFATYYCQQGYIITDIDNVFGTGTKVTVLGGGGGSQVQLQESGPGLVKPSETLSLTCKVSGFSFSNSYWICWIRQPPGKGLEWIGCTFVGSSDSTYYANWAKGRVTISVDSSKNQFSLKLSSVTAADTAVYYCARHPSDAVYGYANNLWGQGTLVTVSSGGGGSGGGGSGGGGSGGGGSIQMTQSPSSLSASVGDRVTITCQASQSINNVLAWYQQKPGKAPKLLIYRASTLASGVPSRFSGSGSGTDFTLTISSLQPEDFATYYCQSSYGNYGDFGTGTKVTVLGGGGGSEVQLVESGGGLVQPGGSLRLSCAASGFSFSSGYDMCWVRQAPGKGLEWVGCVVAGSVDITYYASWAKGRFTISRDNSKNTVYLQMNSLRAEDTATYYCARKDAYSDAFNLWGPGTLVTVSS
notes: scDb; also called 38-02-A04 sc01 scDb-i/33-03-G02 sc07 GL VH3 scDb-o

Source: patent US20230192897A1 (NUMAB THERAPEUTICS, published 2023)
